{
  "source": "patent US20200002406A1",
  "about": "(Janssen / Centocor, published 2020)",
  "binders": {"B1": {"name": "CR14011 (antibody, V domains shown)", "VH": "EVQLVETGGGVVQPGRSLRLSCSVSGFSFTTYAMHWVRQAPGKGLEWVAIISDDATKKYYADSVKGRFTISRDNSRNTLILQMNSLRAEDTGVYYCAKDGDPGYDSRYYYYYGMDVWGQGTTVTVSS", "VL": "SYVLTQPPSVSVAPGKTARITCGGNNIGSKSVHWYQQKPGQAPVLVIYYDSDRPSGIPERFSGSNSGNTATLTISRVEAGDEADYYCQVWDSSSDHPVFGGGTKLTVL", "notes": "also called sc14-011; anti-NA IgG"}, "B2": {"name": "CR14012 (antibody, V domains shown)", "VH": "QVQLQESGGGVVQPGRSLRLSCAASGFSFSTYGMHWVRQAPGKGLEWVAVISYDGSNKYYADSVKGRFTISRDNAKNTLYLQMNSLRAEDTAVYYCGRDSGYTTNWYPGGYWGQGTLVTVSS", "VL": "not shown", "notes": "also called sc14-012; anti-NA IgG"}, "B3": {"name": "CR14017 (antibody, V domains shown)", "VH": "EVQLVETGGGVVQPGRSLRLSCAASGFTFNTHAMHWVRQAPGKGLEWLAVISYDGNIKYYADSVKGRFTISRDSSKNTLYLLMNSLRAEDTAIYYCARDRGDYNYLPSDYWGQGTLVTVSS", "VL": "not shown", "notes": "also called sc14-017; anti-NA IgG"}},
  "key": {"[1]": {"target": "T1, neuraminidase (NA) of influenza B virus B/Florida/04/2006 (Yamagata lineage) (Influenza B virus B/Florida/04/2006)", "assay": "cell-based or functional assay"}, "[2]": {"target": "T2, neuraminidase (NA) of influenza B virus B/Malaysia/2506/2004 (Victoria lineage) (Influenza B virus B/Malaysia/2506/2004)", "assay": "cell-based or functional assay"}, "[3]": {"target": "neuraminidase (NA) of influenza A virus H1N1 strain A/New Caledonia/20/1999 (Influenza A virus A/New …)", "assay": "cell-based or functional assay"}, "[4]": {"target": "T1, neuraminidase (NA) of influenza B virus …", "assay": "cell-based or functional assay", "remark": "listed apart in the source"}, "[5]": {"target": "T2, neuraminidase (NA) of influenza B virus …", "assay": "cell-based or functional assay", "remark": "listed apart in the source"}, "[6]": {"target": "neuraminidase (NA) of influenza A virus H3N2 strain A/Perth/16/2009 (Influenza A virus A/Perth/16/2009 (H3N2))", "assay": "cell-based or functional assay"}, "[7]": {"target": "T3, neuraminidase (NA) of influenza A virus H5N1 A/Hong Kong/156/97 (Influenza A virus A/Hong Kong/156/97 …, UniProt Q9W7Y7 1-450)", "T3 construct": "also called A/Hong Kong/156/97 (H5N1); NA of influenza virus A N1 subtype", "T3 sequence (Q9W7Y7 whole entry)": "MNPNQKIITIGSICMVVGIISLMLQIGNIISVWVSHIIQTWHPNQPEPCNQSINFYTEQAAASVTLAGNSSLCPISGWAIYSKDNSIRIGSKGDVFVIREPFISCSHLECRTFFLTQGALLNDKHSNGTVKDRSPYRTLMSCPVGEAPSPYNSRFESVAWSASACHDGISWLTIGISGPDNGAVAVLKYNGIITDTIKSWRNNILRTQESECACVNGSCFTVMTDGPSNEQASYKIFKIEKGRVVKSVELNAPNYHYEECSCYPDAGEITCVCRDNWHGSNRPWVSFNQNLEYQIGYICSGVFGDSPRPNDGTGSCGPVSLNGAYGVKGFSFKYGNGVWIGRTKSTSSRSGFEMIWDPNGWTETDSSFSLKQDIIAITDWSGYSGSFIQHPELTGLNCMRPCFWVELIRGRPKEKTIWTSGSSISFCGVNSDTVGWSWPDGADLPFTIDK", "assay": "flow cytometry on 293-F cells transfected with NA"}, "[8]": {"target": "human FcγRIIIa receptor (FcγRIIIa V158) (human, UniProt P08637 17-254)", "sequence (P08637 17-254 F176V limits assumed)": "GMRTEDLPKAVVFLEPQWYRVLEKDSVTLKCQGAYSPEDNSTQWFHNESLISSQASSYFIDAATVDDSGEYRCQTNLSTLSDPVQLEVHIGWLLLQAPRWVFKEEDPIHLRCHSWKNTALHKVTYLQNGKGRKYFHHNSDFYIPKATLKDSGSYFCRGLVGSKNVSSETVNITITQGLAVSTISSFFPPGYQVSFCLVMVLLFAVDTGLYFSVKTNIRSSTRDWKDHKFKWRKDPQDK", "assay": "cell-based or functional assay"}},
  "data": [
    {"binder": "B1", "values": [
      {"measurement": "Virus neutralization assay (VNA) on MDCK-SIAT1 cells, IC50", "setting": "[1]", "value": 2.21, "unit": "µg/mL"},
      {"measurement": "Virus neutralization assay (VNA) on MDCK-SIAT1 cells, IC50", "setting": "[2]", "value": 1.19, "unit": "µg/mL"},
      {"measurement": "Neuraminidase inhibition activity, EC50 (NA-XTD assay, whole virus)", "setting": "[3]", "value": "> 50", "unit": "µg/mL"},
      {"measurement": "Neuraminidase inhibition activity, EC50 (NA-XTD assay, whole virus)", "setting": "[4]", "value": 0.004, "unit": "µg/mL"},
      {"measurement": "Neuraminidase inhibition activity, EC50 (NA-XTD assay, whole virus)", "setting": "[5]", "value": 0.013, "unit": "µg/mL"},
      {"measurement": "Neuraminidase inhibition activity, EC50 (NA-XTD assay, whole virus)", "setting": "[6]", "value": "> 50", "unit": "µg/mL"},
      {"measurement": "MFI", "setting": "[7]", "value": "< 250", "unit": "mfi"}
    ]},
    {"binder": "B2", "values": [
      {"measurement": "MFI", "setting": "[7]", "value": "< 250", "unit": "mfi"}
    ]},
    {"binder": "B3", "values": [
      {"measurement": "ADCC Reporter Bioassay EC50; A549 target cells infected with B/Lee/1940", "setting": "[8]", "value": 0.08, "unit": "µg/mL"},
      {"measurement": "MFI", "setting": "[7]", "value": "< 250", "unit": "mfi"}
    ]}
  ]
}
